Values of other authors in patent US9504757B2, “Site-specific GLP-2 conjugate using an immunoglobulin fragment” (HANMI SCIENCE CO., LTD., priority 2011, dated 2016).

Details: inactivation by DPP IV; Bolette H. et al. 2000

**Q.** With “HADGSFSDEMNTILDNLAARDFINWLIQTKITD [GLP-2]” as the sequence, how does the in vivo half-life read?
**A.** ≤ 7 min
